What all share (experiment): purified protein
Substrate in data set [1]: N[C@@H](CC(=O)O)C(=O)O
To be noted: AKT reaction, co-substrate α-ketoglutarate, 0.05 mM PLP, 100 mM phosphate pH 7.5, 30 °C.

Substrate in data set [2]: O=C(O)CC(=O)C(=O)O
The following applies: GOT reaction, co-substrate glutamate, 0.05 mM PLP, 100 mM NH4Cl, 100 mM phosphate pH 7.5, 30 °C.

Substrate in data set [3]: N[C@@H](CCC(=O)O)C(=O)O
The class given is biochemical, Rhizobium leguminosarum. The following applies: GOT reaction, co-substrate oxaloacetate, 0.05 mM PLP, 100 mM NH4Cl, 100 mM phosphate pH 7.5, 30 °C.

Substrate in data set [4]: O=C(O)CCC(=O)C(=O)O
The class given is biochemical, Rhizobium leguminosarum. The following applies: AKT reaction, co-substrate aspartate, 0.05 mM PLP, 100 mM phosphate pH 7.5, 30 °C.

Substrate in data set [5]: CC(=O)C(=O)O
The class given is biochemical, Rhizobium leguminosarum. The following applies: APT reaction, co-substrate aspartate, 0.05 mM PLP, 100 mM phosphate pH 7.5, 30 °C.

We go through one protein from PMC11286295, “Aspartate aminotransferase of Rhizobium leguminosarum has extended substrate specificity and metabolizes aspartate to enable N2 fixation in pea nodules” (Microbiology, 2024).

B1: AatA (Rhizobium leguminosarum bv. phaseoli) (protein)
chain: MAFLADALSRVKPSATIAVSQKARELKAKGRDVIGLGAGEPDFDTPDNIKKAAIDAINRGETKYTPVSGIPELRKAIAAKFKRENGLDYSWEQTIVGTGGKQILFNAFMATLNPGDEVSIPAPYWVSYPEMVALCGGTRFFVSATQEHNFKLQAADLEKAITPKTKWFIFNSPSNPTGAAYTHDELKALTDVLMKNPQVWVLTDDMYEHLTYGDFKFVTPVEVEPQLYDRTLTMNGVSKAYAMTGWRIGYAAGPIQLIKAMDMIQGQQTSGATSIAQWAAVEALNGTQDFIPENKKIFEGRRDLVVSMLNQAKGIVCPVPEGAFYVYPSCKGLIGKTAPSGKVIETDEDFVSELLESEGVAVVHGSAFGLGPNFRISYATSEEQLEEACRRIQRFCGACK
notes: recombinant from A34 gDNA in pET101/D-TOPO (pRU1152; vector with V5-tag and 6xHis), E. coli BL21 Star (DE3), His-Trap purified (histidine elution); expected homodimer; glycine at position 266
Turning to B1, the Km in “purified protein [1]” came to 1740 ± 320 µM; in the data set “purified protein [2]” it was 180 ± 30 µM; in the data set “purified protein [3]” it was 4430 ± 520 µM; in the data set “purified protein [4]”, 320 ± 20 µM; in the data set “purified protein [5]”, 17000 ± 2000 µM. For the same protein, the turnover number (kcat) in the data set “purified protein [1]” was found to be 125.88 ± 5.09 s⁻¹; in the data set “purified protein [2]” it was 168.08 ± 6.55 s⁻¹; in “purified protein [3]” it was 163.71 ± 3.64 s⁻¹; in “purified protein [4]”, 130.97 ± 2.18 s⁻¹; in “purified protein [5]”, 98.96 ± 4.37 s⁻¹.

What is called Km is the substrate concentration at which the rate is half of its maximum. In general, kcat refers to the number of substrate molecules converted per active site and unit of time at saturation.
